The values that follow come from US20090068207A1, “Compositions Containing Beta 2-Glycoprotein I-Derived Peptides for the Prevention and/or Treatment of Vascular Disease” (Vascular Biogenics Ltd., priority 2005, published 2009).

Values joined by “and” are separate entries in the source; they are usually repeats but may differ in a detail not shown here. Identical values can stand only once.

Experiment [1] relates to inguinal lymph node cells. Kind of experiment: Lymph node cell proliferation (stimulation index) to sensitizing antigen β2GPI after mucosal administration. It counts as in vivo, mice. As to conditions: then immunization with human β2GPI, LDL-RD mice. How it is done: Immunization: Subcutaneous immunization with human β2GPI: Human β2GPI was prepared from human plasma pool as described above. For immunization, human β2GPI was dissolved in PBS and mixed with equal volumes of Freund's incomplete adjuvant. Immunizations were performed by single subcutaneous injection of 10 μg antigen/mouse in 0.1 ml volume. Three days following the last mucosal administration of plaque associated molecules the mice received one immunization, and were sacrificed 10 days post immunization.
Proliferation assays: Mice were exposed to the tested antigen as described for assessment of atherosclerosis, and then immunized (one to three days following the last exposure) subcutaneously with 10 μg β2GPI in 0.1 ml PBS, prepared from purified human β2GPI as described above.
Proliferation was assayed ten days after immunization with the β2GPI as follows: Draining inguinal lymph nodes were prepared by mashing the tissues on 100 mesh screens. Red blood cells were lysed with cold sterile double distilled water (6 ml) for 30 seconds and 2 ml of NaCl 3.5% was added. Incomplete medium was added (10 ml), cells were centrifuged for 7 min at 1,700 rpm, resuspended in RPMI medium and counted in a haemocytometer at 1:20 dilution (10 μl cells+190 μl Trypan Blue). Proliferation was measured by the incorporation of [^3H] Thymidine into DNA in triplicate samples of 100 μl of the packed cells (1×10^6 cells/ml) in a 96 well microtiter plate. […] Thymidine (0.5 μCi/well) was added. After an additional 12-24 hours of incubation the cells were harvested and transferred to glass fiber filters using a cell harvester (Brandel) and counted using β-counter (Lumitron). Proliferation was measured by the incorporation of [^3H] thymidine into DNA during the final 12 h of incubation. The results are expressed as the stimulation index (S.I.): the ratio of the mean radioactivity (cpm) of the antigen to the mean background (cpm) obtained in the absence of the antigen. Standard deviation was always <10% of the mean cpm.
Tolerance induced by mucosal exposure to plaque-associated molecules may be mediated by suppression of specific immune responses to antigenic portions (epitopes) of these plaque associated molecules. Lymphocyte proliferation in response to mucosal (nasal and oral) exposure to human β2GPI was measured in […]. 9 male, 5 week old LDL-RD mice were divided into 3 groups. In group A (n=3) oral tolerance was induced with 100 μg/mouse β2GPI suspended in 0.1 ml PBS, administered by gavage, as described above, every other day for 5 days. In group B (n=3) nasal tolerance was induced with 10 μg/mouse β2GPI suspended in 10 μl PBS, administered intranasally as described above, every other day for 5 days. The mice in group C (n=3) received oral administration of 200 μl PBS every other day for 5 days. Immune reactivity was stimulated in all mice by immunization with human β2GPI as described above in the Materials and Methods section, one day after the last feeding. Ten days after the immunization lymph nodes were collected for assay of proliferation (as expressed in the Stimulation Index SI). All mice were fed normal chow-diet containing 4.5% fat by weight (0.02% cholesterol) and water ad libitum.

The next experiment deals with ApoE-KO mice. Kind of experiment: Aortic sinus lesion area after oral administration in ApoE-KO mice. Type of experiment: in vivo. The source says: Assessment of Atherosclerosis: Quantification of atherosclerotic fatty streak lesions was done by calculating the lesion size in the aortic sinus as previously described (16) and by calculating the lesion size in the aorta. Briefly, after perfusion with saline Tris EDTA, the heart and the aorta were removed from the animals and the peripheral fat cleaned carefully. The upper section of the heart was embedded in OCT medium (10.24% w/w polyvinyl alcohol; 4.26% w/w polyethylene glycol; 85.50% w/w nonreactive ingredients) and frozen. Every other section (10 μm thick) throughout the aortic sinus (400 μm) was taken for analysis. The distal portion of the aortic sinus was recognized by the three valve cusps that are the junctions of the aorta to the heart. […] Lesion areas per section were scored on a grid (17) by an observer counting unidentified, numbered specimens. The aorta was dissected from the heart and surrounding adventitious tissue was removed. Fixation of the aorta and Sudan staining of the vessels were performed as previously described (21).
In order to determine the protective effect of mucosal administration of β2GPI on development of atherosclerosis, adult ApoE-KO mice were treated with oral administration of human β2GPI. 20 week-old male ApoE-KO mice, having advanced atherosclerotic lesions were treated monthly with human β2GPI (50 μg/dose) or PBS (0.2 ml) in 5 oral administrations (by gavage, as described hereinabove) given every other day, for four months. Lesion area calculated from cryosections of the aortic sinus were compared between control untreated 20 week old mice, and mice following 16 weeks oral administration of β2GPI or PBS.
10-11 week-old male ApoE-KO mice, having early atherosclerotic lesions, were treated with 5 oral administrations (by gavage, as described hereinabove) given every other day of human β2GPI peptide S-4 (SEQ ID NO: 14) or human β2GPI (50 μg/dose) or PBS (0.2 ml). Lesion areas calculated from cryosections of the aortic sinus were compared between control untreated, human β2GPI treated and S-4 human β2GPI-derived peptide treated mice at 8 weeks following the last oral administration of the antigens, or of PBS.

The next experiment has as its system lymph node cells. Briefly: Lymph node cell proliferation (stimulation index) to oxLDL after oral administration. Type of experiment: in vivo, mice. Particulars: oral, 3 doses of 100 μg; LDL-RD mice immunized with OxLDL; OxLDL challenge; mean ± S.E. The procedure: Proliferation was measured by the incorporation of [^3H] thymidine into DNA during the final 12 h of incubation. The results were computed as stimulation index: the ratio of the mean cpm of the antigen to the mean background cpm obtained in the absence of the antigen.
[…] Three days after the final administration of peptides, the mice were immunized with OxLDL in incomplete Freund's adjuvant, as described in the Examples above, and lymph node cells assessed for antigen (OxLDL) stimulation of proliferation 10 days later. Proliferation was assessed by incorporation of thymidine, expressed as the Stimulation Index, as described.

B1: Human β2 GPI: human beta2-glycoprotein I (SEQ ID NO: 10) purified from serum (protein)
chain: MISPVLILFSSFLCHVAIAGRTCPKPDDLPFSTVVPLKTFYEPGEEITYSCKPGYVSRGGMRKFICPLTGLWPINTLKCTPRVCPFAGILENGAVRYTTFEYPNTISFSCNTGFYLNGADSAKCTEEGKWSPELPVCAPIICPPPSIPTFATLRVYKPSAGNNSLYRDTAVFECLPQHAMFGNDTITCTTHGNWTKLPECREVKCPFPSRPDNGFVNYPAKPTLYYKDKATFGCHDGYSLDGPEEIECTKLGNWSAMPSCKASCKLPVKKATVVYQGERVKIQEKFKNGMLHGDKVSFFCKNKEKKCSYTEDAQCIDGTIEVPKCFKEHSSLAFWKTDASDVKPC
B1: the “S.I (Stimulation Index)” value in experiment [1] (nasal 10 μg/mouse every other day for 5 days) came to 2.1 ± 0.5; in experiment [1] (oral 100 μg/mouse every other day for 5 days), 4.4 ± 0.5. In addition, in the experiment with ApoE-KO mice (End, oral 50 μg, 5 doses, ApoE-KO mice), the “Aortic sinus lesion (μm^2)” value was found to be 90833 ± 9502 μm^2. Also, the “reduction of progression of atherosclerotic lesions compared to PBS controls” value in the experiment with ApoE-KO mice (oral 50 μg, 5 doses, then 8 weeks of chow diet, 10-11 week-old ApoE-KO mice) is on record as 47%. Also, in the experiment with ApoE-KO mice (oral 50 μg/dose, 5 administrations monthly for four months, 20 week-old ApoE-KO mice, 16 weeks), the “inhibition of progression of atherosclerotic lesions as compared to PBS control” value is > 30% and 35%. This molecule had a Stimulation index in the experiment with lymph node cells of 38 ± 12.
